{"source": "patent US20190233522A1", "about": "“NEW DOSAGE REGIMENS FOR ANTIBODY DRUG CONJUGATES BASED ON ANTI-AXL ANTIBODIES” (GENMAB A/S, priority 2016, published 2019)", "molecules": {"B1": {"name": "IgG1-AXL-183-N52Q-vcMMAE: anti-AXL antibody 183-N52Q (VH SEQ ID No 17, VL SEQ ID No 18) conjugated to vcMMAE (conjugate)", "VH": "QVQLQQWGAGLLKPSETLSLTCAVYGGSFSGYYWSWIRQPPGKGLEWIGEIQQSGSTNYNPSLKSRVTISVDTSKNQFSLKLSSVTAADTSVYYCASGNWDHFFDYWGQGTLVTVSS", "VL": "DIQMTQSPSSVSASVGDRVTITCRASQGISSWLAWYQHKPGKAPKLLIYATSSLQSGVTSRFSGSGSGTDFTLTISSLQPEDFATYYCQQAKSFPWTFGQGTKVEIK", "modifications": "vc-MMAE conjugate; homo sapiens"}, "B2": {"name": "IgG1-AXL-183-vcMMAE: anti-AXL antibody 183 (FN1-binder) conjugated to vcMMAE (conjugate)", "VH": "B1 VH with Q52N", "VL": "B1 VL"}, "B3": {"name": "IgG1-AXL-733-vcMMAE: anti-AXL antibody 733 (VH SEQ ID No 34, VL SEQ ID No 35) conjugated to vcMMAE (conjugate)", "VH": "QVQLVESGGGVVQPGRSLRLSCAASGFSFSTYAMHWVRQAPGKGLEWVAVISYDGDNKYSADSVKGRFTISRDNSKNTLYLQMNSLRAEDTAVYYCARGRKLGIDAFDIWGQGTMVTVSS", "VL": "AIQLTQSPSSLSASVGDRVTITCRASQGISSALAWYQQKPGKAPKLLIYDASSLESGVPSRFSGSGSGTDFTLTISGLQPEDFATYYCQQFNSYPFTFGPGTKVDIK", "modifications": "vc-MMAE conjugate; homo sapiens"}, "B4": {"name": "IgG1-AXL-148 (antibody, V domains shown)", "VH": "EVQLLESGGGLVQPGGSLRLSCAASGFTFSSYAMTWVRQAPGKGLEWVSAISISGGSTFYADSVKGRFTISRDNSKNTLYLQMNSLRAEDTAVYYCRGYSGYVYDAFDFWGQGTMVTVSS", "VL": "DIQMTQSPSSLSASVGDRVTITCRASQGISNWLAWYQQKPEKAPKSLIYAASSLQSGVPSRFSGSGSGTDFTLTISSLQPEDFATYYCQQYNSYPLTFGGGTKVEIK"}, "B5": {"name": "IgG1-AXL-726-M101L-vcMMAE: anti-AXL antibody 726-M101L (VH SEQ ID No 32, VL SEQ ID No 33) conjugated to vcMMAE (conjugate)", "VH": "QVQLQQWGAGLLKPSETLSLTCAIDGGSFSGYYWSWIRQPPGKGLEWIGEISHSGRTNYNPSLKSRVTISIDTSKNQFSLKLSSVAAADTAVYYCARFITLIRGAIITHFDYWGQGALVTVSS", "VL": "B4 VL with N31S, N92H, L96Y, G100Q, V104L", "modifications": "vc-MMAE conjugate; homo sapiens"}, "B6": {"name": "IgG1-AXL-726-vcMMAE: anti-AXL antibody 726 (FN2-binder) conjugated to vcMMAE (conjugate)", "VH": "B5 VH with L101M", "VL": "B4 VL with N31S, N92H, L96Y, G100Q, V104L"}, "B7": {"name": "IgG1-AXL-511-vcMMAE: anti-AXL antibody 511 (VH SEQ ID No 136, VL SEQ ID No 140) conjugated to vcMMAE (conjugate)", "VH": "EVQLLESGGGLVQPGGSLRLSCAASGFTFSSYAMNWVRQAPGKGLEWVSGISGSGGHTYHADSVKGRFTISRDNSKNTLYLQMNSLRAEDTAVYYCAKDRYDILTGYYNLLDYWGQGTLVTVSS", "VL": "B4 VL with N31S, K42E, T102A", "modifications": "vc-MMAE conjugate; homo sapiens"}}, "key": {"[1]": {"system": "LCLC-103H xenograft tumors", "test": "Therapeutic treatment of SC LCLC-103H tumor xenografts (Example 3)", "assay_type": "in vivo, SCID mice", "conditions": "for tumor volume versus control IgG1-b12: day 30, One Way ANOVA (Dunnett's); for anti-tumor activity in established SC LCLC-103H tumors: single i.p. injection 1 mg/kg, SCID mice", "method": "The in vivo efficacy of MMAE-conjugated anti-AXL antibodies was determined in established subcutaneous (SC) LCLC-103H xenograft tumors in SCID mice. 5×10^6 LCLC-103H (large cell lung carcinoma) tumor cells (obtained from Leibniz-Institut DSMZ-Deutsche Sammlung von Mikroorganismen and Zellkulturen GmbH (DSMZ)) in 200 μL PBS were injected subcutaneously in the right flank of female SCID mice. Starting 14-21 days after tumor cell inoculation, when the average tumor size was >100-200 mm^3 and distinct tumor growth was observed, a single injection with 1 mg/kg (20 μg/mouse) IgG1-AXL-vcMMAE antibodies or control (unconjugated IgG1-b12) was given intraperitoneally (100 μL/mouse). Tumor volume was determined at least two times per week. Tumor volumes (mm^3) were calculated from caliper (PLEXX) measurements as: 0.52×(length)×(width)^2."}, "CEXF 773 tumors": {"system": "CEXF 773 tumors", "test": "Cervix carcinoma PDX model CEXF 773", "assay_type": "in vivo, NMRI nu/nu mice", "conditions": "for anti-tumor activity on CEXF 773 tumors: 4 mg/kg i.v. day 0 and day 7; for average tumor size versus IgG1-b12 and IgG1-b12-vcMMAE: day 28, 4 mg/kg i.v. day 0 and 7, p<0.001", "method": "The anti-tumor activity of IgG1-AXL-183-vcMMAE and IgG1-AXL-726-vcMMAE was evaluated in the patient derived cervix carcinoma xenograft CEXF 773 model in NMRI nu/nu mice (Harlan, Netherlands). Experiments were performed by Oncotest (Freiburg, Germany).\nTumor fragments were obtained from xenografts in serial passage in nude mice. After removal from donor mice, tumors were cut into fragments (4-5 mm diameter) and placed in PBS (with 10% penicillin/streptomycin) until subcutaneous implantation. Mice under isofluorane anesthesia received unilateral, subcutaneous tumor implants in the flank. Tumors were allowed to grow until the tumor volume was 50-250 mm^3.\nThe treatment groups were: IgG1-b12, IgG1-b12-vcMMAE, IgG1-AXL-183-vcMMAE and IgG1-AXL-726-vcMMAE. The antibodies and ADCs were dosed intravenously (i.v.) at 4 mg/kg on the day of randomization (day 0) and on day 7. Tumor volumes (mm^3) were monitored twice weekly and were calculated from caliper (PLEXX) measurements as: 0.52×(length)×(width)^2."}, "LCLC-103H tumors": {"system": "LCLC-103H tumors", "test": "LCLC-103H xenograft model (low Gas6, Example 5)", "assay_type": "in vivo", "conditions": "3 mg/kg i.p., SCID mice", "method": "(§1) Tumor induction was performed by subcutaneous injection of 5×10^6 A431 or LCLC-103H tumor cells (both obtained from Leibniz-Institut—Deutsche Sammlung von Mikroorganismen and Zellkulturen GmbH (DSMZ)) in 200 μL PBS in the right flank of female SCID mice. Treatment was started 14-21 days after tumor cell inoculation, when the average tumor size was >100-200 mm^3 and distinct tumor growth was observed. Mice received a single injection or a total of 4 biweekly intraperitoneal injections with IgG1-AXL-vcMMAE ADCs or control antibody (unconjugated IgG1-b12), as indicated. Tumor volume was determined at least two times per week. Tumor volumes (mm^3) were calculated from caliper (PLEXX) measurements as: 0.52×(length)×(width)^2."}, "A431 tumors": {"system": "A431 tumors", "test": "A431 xenograft model (high Gas6)", "assay_type": "in vivo", "conditions": "3 mg/kg i.p., SCID mice", "method": "as §1"}, "MDA-MB-231 tumors": {"system": "MDA-MB-231 tumors", "test": "Orthotopic MDA-MB-231 D3H2LN breast cancer xenograft model", "assay_type": "in vivo, SCID mice", "conditions": "for anti-tumor activity on MDA-MB-231 tumors: 4 biweekly doses of 3 mg/kg; for average tumor size versus IgG1-b12 and IgG1-b12-vcMMAE: day 32, 4 biweekly doses of 3 mg/kg, P<0.001 One Way Anova", "method": "The anti-tumor activity of IgG1-AXL-183-vcMMAE and IgG1-AXL-726-vcMMAE was evaluated in an orthotopic MDA-MB-231 D3H2LN xenograft model.\nMDA-MB-231-luc D3H2LN Bioware cells (mammary gland adenocarcinoma; Perkin Elmer, Waltham, Mass.) were implanted in the mammary fat pad of 6-11 week old, female SCID (C.B-17/IcrPrkdc-scid/CRL) mice (Charles-River) under isofluorane anesthesia. Tumors were allowed to grow and mice were randomized when tumors reached a volume of ˜325 mm^3. […] The treatment groups were: IgG1-b12, IgG1-b12-vcMMAE, IgG1-AXL-183-vcMMAE and IgG1-AXL-726-vcMMAE. The animals received a total of 4 biweekly doses of 3 mg/kg antibody or ADC starting at the day of randomization. Tumor volumes (mm^3) were monitored twice weekly and were calculated from caliper (PLEXX) measurements as: 0.52×(length)×(width)^2."}, "PAXF1657 tumors": {"system": "PAXF1657 tumors", "test": "PAXF1657 pancreas cancer PDX model", "assay_type": "in vivo, NMRI nu/nu mice", "method": "Human pancreas tumor tissue was subcutaneously implanted in the left flank of 5-7 weeks old female NMRI nu/nu mice. […] At day of randomization (day 0), the 3 ADCs were dosed intravenously (i.v.) at either 4 mg/kg or 2 mg/kg, and the control group received a single dose of IgG1-b12 (4 mg/kg). Tumor volumes (mm^3) were monitored twice weekly and were calculated from caliper (PLEXX) measurements as: 0.52×(length)×(width)^2."}, "[2]": {"test": "Pre-clinical PK studies in cynomolgus monkey", "assay_type": "in vivo", "text": "Data from 5 in-vivo pre-clinical studies, shown in the Table below, were provided, containing measurements of the plasma ADC level, plasma IgG level, and plasma MMAE level (only measured in study 5).\nAll studies appeared to show a significant drop in plasma concentrations of ADC/IgG after the 2nd dose when compared to the first dose, which corresponded with an ADA response. As this is a fully human antibody, ADA response are only very rarely expected to occur in humans. Therefore, only data after the first dose were included in the data preparation and subsequently modelled."}}, "note": "Substitutions are numbered along the chain they refer to. Numbers in names are those of the source."}
{"molecule": "B1", "values": [{"measurement": "tumor volume versus control IgG1-b12", "setting": "[1]; 1 mg/kg single i.p.", "value": "not significant affected"}, {"measurement": "anti-tumor activity in established SC LCLC-103H tumors", "setting": "[1]", "value": "no or only minor tumor growth inhibition"}]}
{"molecule": "B2", "values": [{"measurement": "anti-tumor activity on CEXF 773 tumors", "setting": "CEXF 773 tumors", "value": "induced tumor regression"}, {"measurement": "average tumor size versus IgG1-b12 and IgG1-b12-vcMMAE", "setting": "CEXF 773 tumors", "value": "significantly smaller"}, {"measurement": "anti-tumor activity in the LCLC-103H xenograft model", "setting": "LCLC-103H tumors", "value": "induced tumor regression"}, {"measurement": "anti-tumor activity on A431 tumors", "setting": "A431 tumors", "value": "induced growth inhibition"}, {"measurement": "anti-tumor activity on MDA-MB-231 tumors", "setting": "MDA-MB-231 tumors", "value": "induced tumor regression"}, {"measurement": "average tumor size versus IgG1-b12 and IgG1-b12-vcMMAE", "setting": "MDA-MB-231 tumors", "value": "significantly smaller"}]}
{"molecule": "B3", "values": [{"measurement": "growth of PAXF1657 tumors compared to the control group", "setting": "PAXF1657 tumors; 2 mg/kg i.v., day 0", "value": "significantly reduced the growth"}, {"measurement": "anti-tumor activity on PAXF1657 tumors", "setting": "PAXF1657 tumors; 4 mg/kg i.v., day 0", "value": "induced tumor regression"}, {"measurement": "average tumor size versus isotype control IgG1-b12", "setting": "PAXF1657 tumors; day 14, 2 mg/kg or 4 mg/kg, p<0.001 Tukey's multiple comparison test", "value": "significantly smaller"}, {"measurement": "anti-tumor activity on A431 tumors", "setting": "A431 tumors", "value": "induced growth inhibition"}, {"measurement": "complete tumor reduction", "setting": "[1]; 1 mg/kg single i.p.", "value": "in some mice within these groups to complete tumor reduction"}, {"measurement": "tumor volume versus control IgG1-b12", "setting": "[1]; 1 mg/kg single i.p.", "value": "highly significant difference"}, {"measurement": "anti-tumor activity in established SC LCLC-103H tumors", "setting": "[1]", "value": "induced tumor regression"}]}
{"molecule": "B4", "values": [{"measurement": "pharmacokinetic properties, unconjugated antibody (study 3) versus ADC (study 2)", "setting": "[2]", "value": "similar"}, {"measurement": "anti-tumor activity in the PAXF1657 model", "setting": "PAXF1657 tumors; dose not given", "value": "did not result in anti-tumor activity"}]}
{"molecule": "B5", "values": [{"measurement": "tumor volume versus control IgG1-b12", "setting": "[1]; 1 mg/kg single i.p.", "value": "not significant affected"}, {"measurement": "anti-tumor activity in established SC LCLC-103H tumors", "setting": "[1]", "value": "no or only minor tumor growth inhibition"}]}
{"molecule": "B6", "values": [{"measurement": "anti-tumor activity on CEXF 773 tumors", "setting": "CEXF 773 tumors", "value": "induced tumor regression"}, {"measurement": "average tumor size versus IgG1-b12 and IgG1-b12-vcMMAE", "setting": "CEXF 773 tumors", "value": "significantly smaller"}, {"measurement": "anti-tumor activity in the LCLC-103H xenograft model", "setting": "LCLC-103H tumors", "value": "induced tumor regression"}, {"measurement": "anti-tumor activity on A431 tumors", "setting": "A431 tumors", "value": "induced growth inhibition"}, {"measurement": "anti-tumor activity on MDA-MB-231 tumors", "setting": "MDA-MB-231 tumors", "value": "induced tumor regression"}, {"measurement": "average tumor size versus IgG1-b12 and IgG1-b12-vcMMAE", "setting": "MDA-MB-231 tumors", "value": "significantly smaller"}]}
{"molecule": "B7", "values": [{"measurement": "tumor volume versus control IgG1-b12", "setting": "[1]; 1 mg/kg single i.p.", "value": "significant tumor growth inhibition"}, {"measurement": "anti-tumor activity in established SC LCLC-103H tumors", "setting": "[1]", "value": "induced tumor growth inhibition"}]}
